Measured values taken from patent US20250257130A1 (NONA BIOSCIENCES SUZHOU, published 2025).

How the values were obtained:
[1] = target: T1, human ROR1 on cells (HEK293T-hROR1, PANC-1, A549) (human, UniProt Q01973 30-937); test: flow cytometry, PANC-1 cells
T1 construct: whole, on cells; one molecule for the three cell lines; also called huROR1; cell surface ROR1
Experimental: (§1) In brief, anti-ROR1 antibodies were serially diluted in staining buffer (PBS containing 2% FBS). Antibody solution was incubated with 1×10⁵ cells at 4° C. for 1 hour. […] After 1-hour incubation at 4° C., cells were washed twice with staining buffer and subjected to flow cytometry. PR000374 (Bench marker 1) and non-relevant IgG isotype control (Crownbio) were used as positive and negative controls, respectively.

[2] = target: T2, Human ROR1-ECD-his (Acro Biosystems RO1-H522y) (human, UniProt Q01973 30-406); test: BLI in-tandem, row = 1st Ab; competitor (2nd Ab): PR000374
T2 construct: extracellular domain; bought protein; also called hROR1-ECD-his; hu-ROR1-ECD-his
From the text: (§2) To determine if anti-ROR1 antibodies bind to human ROR1 on different or approximate binding epitopes, the ForteBio Octet® RED96e platform was used to perform epitope competition experiments on the anti-ROR1 antibodies. Human ROR1 protein (Acrobiosystems, #RO1-H522y) was biotinylated and then captured onto SA biosensors (ForteBio, #18-5020) to reach loading level of 0.3-0.4 nm. The in-tandem competition assay format was applied and it contains two association steps. Firstly, the antigen-loaded biosensors bind to each antibody (a.k.a, First antibody, 1st Ab) with a saturating concentration of 200 nM for 180 seconds to reach equilibrium and then secondly bind to the competing antibodies (a.k.a, Second antibody, 2nd Ab) of 200 nM for 180 seconds. The second binding signals were recorded as the 100% signal of each antibody when the first antibodies were replaced by kinetics buffer. All the binding data were analyzed using ForteBio Data Analysis 11.0 software. The inhibition rate is calculated by the following formula: […]

[3] = target: T1, human ROR1 on cells (HEK293T-hROR1, …); test: flow cytometry on PANC-1 cells, MFI (Median-APC) [middle panel, letter not given]
[4] = target: T1, human ROR1 on cells (HEK293T-hROR1, …); test: flow cytometry, PANC-1 cells; remark: listed apart in the source
Procedure, shortened: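 Anti-ROR1 antibodies, serially diluted in PBS with 2% FBS, were incubated with 1×10⁵ PANC-1 cells for 1 hour at 4° C. A further 1-hour incubation at 4° C followed, then two washes and flow cytometry. A benchmark anti-ROR1 antibody and an isotype IgG served as positive and negative controls.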

[5] = target: T1, human ROR1 on cells (HEK293T-hROR1, …); test: flow cytometry on PANC-1 cells, MFI (Median-APC) [bottom panel, letter not given]
[6] = target: T2, Human ROR1-ECD-his (Acro Biosystems …); test: BLI in-tandem, row = 1st Ab; competitor (2nd Ab): PR005340
From the text: as §2

[7] = target: T2, Human ROR1-ECD-his (Acro Biosystems …); test: BLI in-tandem, row = 1st Ab; competitor (2nd Ab): PR005338
From the text: as §2

[8] = target: T3, cynomolgus ROR1 on CHO-K1-cynoROR1 cells (cynomolgus monkey, UniProt A0A2K5WTX7 30-937); test: flow cytometry, CHO-K1-cynoROR1 cells
T3 construct: whole, on cells
Experimental: (§3) Binding of recombinant anti-ROR1 antibodies to human or cynomolgus ROR1-overexpressing cells was tested by flow cytometry. In this example, ROR1-expressing cell lines are HEK293T cell lines that had been transfected to express human ROR1 on the surface (HEK293T-hu ROR1, KYINNO BIOTECHNOLOGY CO., LTD, Catalog #KC-1018), CHO-K1 cell lines that had been transfected to express cynomolgus ROR1 (CHOK1-cyno ROR1), PANC-1 (ATCC, catalog: CRL-1469) or A549 cell lines (Shanghai Institute of Biochemistry and Cell Biology, Chinese Academy of Sciences).
as §1

[9] = target: T1, human ROR1 on cells (HEK293T-hROR1, …); test: flow cytometry on PANC-1 cells, MFI (Median-APC) [top panel]
[10] = target: T4, hu-ROR2-ECD-his (Acrobiosystems RO2-H52E5) (human, UniProt Q01974 34-403); test: BLI, antibody on AHC sensor, ROR2-His in solution
T4 construct: extracellular domain; bought protein; also called Human ROR2 his-tagged protein; Human ROR2, His Tag
Experimental: In the example, binding kinetics of anti-ROR1 antibodies to soluble ROR2 protein were analyzed by using Bio-Layer Interferometry (BLI) analysis on Fortebio Octet Red384 instrument (Fortebio). […] The captured biosensors were then dipped in wells containing 2-fold serial dilutions of antigen proteins to detect association signals, followed by dissociation steps in wells containing 1× kinetic buffer. Human ROR2 his-tagged protein (Acrobiosystems, #RO2-H52E5) was diluted from 600 nM to 37.5 nM; the association phase was 180 seconds, and the dissociation phase was 180 seconds. The sensorgrams were recorded and the reference signals were subtracted before curve fitting using ForteBio Data Analysis 11.0 software. Association rates (kₒₙ) and dissociation rates (kdis) were calculated using a simple one-to-one Langmuir binding model. The equilibrium dissociation constant (KD) was calculated as the ratio of kdis/kₒₙ.

[11] = target: T2, Human ROR1-ECD-his (Acro Biosystems …); test: BLI in-tandem, row = 1st Ab; competitor (2nd Ab): PR007417
From the text: as §2

[12] = target: T2, Human ROR1-ECD-his (Acro Biosystems …); test: BLI in-tandem, row = 1st Ab; competitor (2nd Ab): PR007424
From the text: as §2

[13] = target: T3, cynomolgus ROR1 on CHO-K1-cynoROR1 cells; test: flow cytometry on CHOK1-cynoROR1 cells, MFI (APC-A Median) [top panel]
Experimental: as §3, §1

[14] = target: T1, human ROR1 on cells (HEK293T-hROR1, …); test: flow cytometry on PANC-1 cells, MFI (APC-A Median)
Experimental: as §3, §1

[15] = target: T2, Human ROR1-ECD-his (Acro Biosystems …); test: BLI, antibody on AHC sensor, ROR1-His 5-80 nM in solution
Experimental: The captured biosensors were then dipped in wells containing 2-fold serial dilutions of antigen proteins to detect association signals, followed by dissociation steps in wells containing 1× kinetic buffer. Human ROR1 hits-tagged protein (Acrobiosystems, #RO1-H522y) was diluted from 80 nM to 5 nM; the association phase was 180 seconds, and the dissociation phase was 600 seconds. The sensorgrams were recorded and the reference signals were subtracted before curve fitting using ForteBio Data Analysis 11.0 software. Association rates (kₒₙ) and dissociation rates (kdis) were calculated using a simple one-to-one Langmuir binding model. The equilibrium dissociation constant (KD) was calculated as the ratio of kdis/kₒₙ.

[16] = target: T1, human ROR1 on cells (HEK293T-hROR1, …); test: flow cytometry on PANC-1 cells, MFI (FITC-A Median)
Experimental: as §3, §1

[17] = target: T3, cynomolgus ROR1 on CHO-K1-cynoROR1 cells; test: flow cytometry on CHOK1-cynoROR1 cells, MFI (APC-A Median) [middle panel, letter not given]
Experimental: as §3, §1

[18] = target: T1, human ROR1 on cells (HEK293T-hROR1, …); test: flow cytometry on PANC-1 cells, MFI (FITC-A Median) [continued) C]
Experimental: as §3, §1

T1 sequence (Q01973 30-937): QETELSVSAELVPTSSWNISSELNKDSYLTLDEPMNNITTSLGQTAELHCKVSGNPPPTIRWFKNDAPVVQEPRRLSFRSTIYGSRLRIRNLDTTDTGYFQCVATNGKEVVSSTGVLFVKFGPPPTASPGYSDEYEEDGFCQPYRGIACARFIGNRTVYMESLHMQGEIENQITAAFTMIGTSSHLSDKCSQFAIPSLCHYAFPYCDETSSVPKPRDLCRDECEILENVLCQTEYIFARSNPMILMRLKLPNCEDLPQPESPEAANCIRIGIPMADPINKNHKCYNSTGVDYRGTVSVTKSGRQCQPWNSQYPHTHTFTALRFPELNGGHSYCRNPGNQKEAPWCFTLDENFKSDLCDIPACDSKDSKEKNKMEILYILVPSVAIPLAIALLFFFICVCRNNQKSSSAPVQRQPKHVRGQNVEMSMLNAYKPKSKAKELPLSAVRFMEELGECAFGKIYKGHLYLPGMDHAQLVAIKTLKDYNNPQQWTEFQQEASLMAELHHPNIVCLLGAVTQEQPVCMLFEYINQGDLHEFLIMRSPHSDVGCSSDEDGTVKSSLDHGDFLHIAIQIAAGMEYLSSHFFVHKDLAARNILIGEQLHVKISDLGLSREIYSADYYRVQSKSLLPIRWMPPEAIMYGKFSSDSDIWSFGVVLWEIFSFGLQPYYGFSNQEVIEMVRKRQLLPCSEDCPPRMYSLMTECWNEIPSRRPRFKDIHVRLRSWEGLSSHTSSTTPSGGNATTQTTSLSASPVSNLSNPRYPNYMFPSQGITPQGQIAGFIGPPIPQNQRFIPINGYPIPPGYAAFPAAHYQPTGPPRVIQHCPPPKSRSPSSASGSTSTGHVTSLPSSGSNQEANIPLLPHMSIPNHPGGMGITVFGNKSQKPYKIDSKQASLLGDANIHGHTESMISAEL
T2 sequence (Q01973 30-406): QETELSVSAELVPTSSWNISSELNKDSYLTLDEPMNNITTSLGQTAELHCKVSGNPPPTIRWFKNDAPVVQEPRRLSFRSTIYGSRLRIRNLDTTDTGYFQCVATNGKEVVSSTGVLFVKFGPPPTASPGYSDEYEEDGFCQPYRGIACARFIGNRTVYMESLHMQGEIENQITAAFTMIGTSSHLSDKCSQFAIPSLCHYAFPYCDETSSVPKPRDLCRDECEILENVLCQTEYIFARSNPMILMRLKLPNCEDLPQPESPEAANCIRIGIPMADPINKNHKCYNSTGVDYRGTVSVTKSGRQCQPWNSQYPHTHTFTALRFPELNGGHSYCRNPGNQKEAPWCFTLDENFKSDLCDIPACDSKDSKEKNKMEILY
T4 sequence (Q01974 34-403): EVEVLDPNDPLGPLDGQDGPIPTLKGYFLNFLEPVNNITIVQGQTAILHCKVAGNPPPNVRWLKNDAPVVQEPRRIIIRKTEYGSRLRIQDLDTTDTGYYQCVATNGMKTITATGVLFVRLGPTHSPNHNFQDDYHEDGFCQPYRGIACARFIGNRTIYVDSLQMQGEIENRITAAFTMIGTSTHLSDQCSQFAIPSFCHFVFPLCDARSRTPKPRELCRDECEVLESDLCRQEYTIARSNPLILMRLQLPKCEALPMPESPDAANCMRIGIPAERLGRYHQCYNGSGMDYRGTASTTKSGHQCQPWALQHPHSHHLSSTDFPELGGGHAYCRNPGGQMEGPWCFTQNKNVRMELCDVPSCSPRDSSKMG

Binder | Max [1] | Inhibition (%) [2] [%] | EC50 (read off the curve) [3] [nM] | TOP [4] | EC50 (read off the curve) [5] [nM] | Inhibition (%) [6] [%] | Inhibition (%) [7] [%] | Max [8] | EC50 (read off the curve) [9] [nM] | binding result [10] | Inhibition (%) [11] [%] | Inhibition (%) [12] [%] | EC50 (read off the curve) [13] [nM] | EC50 (read off the curve) [14] [nM] | Kd [15] [nM] | koff [15] [s⁻¹] | kon [15] [M⁻¹ s⁻¹] | EC50 (read off the curve) [16] [nM] | EC50 (read off the curve) [17] [nM] | EC50 (read off the curve) [18] [nM]
PR005340 (antibody, human IgG1, V domains shown, HCAb (heavy chain-only, human IgG1 Fc), no light chain) VH: EVQLVESGGGLVKPGGSLRLSCAASGFTFSDYYMSWIRQAPGKGLEWISYISSSGSTIHYADSVKGRFTISRDNAKNSLYLQMNSLRAEDTAIYYCARDIPSSSSDWVSLQFDYWGQGTLVTVSS | 17500 | -0.17 | ~2 | 84900 | ~2 | 109 | 106 | 36400 | ~3 | no binding (tested: 37.5-600 nM) | 109 | 106 | ~3 | ~2 | 1.2 | 0.000171 | 143000 | – | – | –
PR005338 (antibody, human IgG1, V domains shown, HCAb (heavy chain-only, human IgG1 Fc), no light chain) VH: EVQLVESGGGLVKPGGSLRLSCAASGFTFSDYYMSWIRQAPGKGLEWISYISSSGTTIHYADSVKGRFTISRDNAKNSLYLQMNSLRTEDTAVYYCARDAPSSNSDWVSLQFDYWGQGTLVTVSS | 12700 | -3.02 | – | – | – | 108 | 104 | 33300 | – | no binding (tested: 37.5-600 nM) | 108 | 102 | – | – | 2.4 | 0.000316 | 132000 | ~7 | ~8 | –
PR005344 (antibody, human IgG1, V domains shown, HCAb (heavy chain-only, human IgG1 Fc), no light chain) VH: EVQLVESGGGLVKPGGSLRLSCAASGFTFSDYYMSWIRQAPGKGLEWISYISNSSSSISYANSVKGRFTVSRDNAKNSLYLQMNSLRAEDTALYYCARSPRGAFYEDFDYWGQGTLVTVSS | 12400 | – | – | – | – | – | – | 30700 | – | – | – | – | – | – | – | – | – | ~20 | ~10 | –
PR005349 (antibody, human IgG1, V domains shown, HCAb (heavy chain-only, human IgG1 Fc), no light chain) VH: EVQLVESGGGLVKPGGSLRLSCAASGFTFSDYYMSWIRQAPGKGLEWISYISNSSSSISYANSVKGRFTVSRDNAKNSLYLQMNSLRAEDTALYYCARSPRSAFYEDFDYWGQGTLVTVSS | 27100 | – | – | – | – | – | – | – | – | – | – | – | – | – | – | – | – | – | – | ~10
PR005352 (antibody, human IgG1, V domains shown, HCAb (heavy chain-only, human IgG1 Fc), no light chain) VH: EVQLVESGGGLVKPGGSLRLSCAASGFTFSDYYMSWIRQAPGKGLEWISYISSSGGSIYYADSVKGRFTISRDNAKNSLYLQMNRLRAEDTALYYCARTPPSSNNWYEDFDYWGQGALVTVSS | 23300 | – | – | – | – | – | – | – | – | – | – | – | – | – | – | – | – | – | – | ~9
